Data set [1] deals with the molecule itself. The data set is described as follows: native MS; complex at about 4 µM in 200 mM ammonium acetate pH 7.0 with 2 mM OGNG, released from OGNG micelles, Q Exactive UHMR, positive mode.
The target of data set [2] is T1, 4F2 cell-surface antigen heavy chain (4F2hc, SLC3A2), fully glycosylated (human, UniProt P08195-1 1-630, four highly branched, sialylated N-glycans at Asn365, Asn381, Asn424 and Asn506 (9 to 16 sialic acid residues); one phosphorylation site (residue not given)).
T1 construct: 4F2 cell-surface antigen heavy chain (4F2hc, SLC3A2), human, full-length cDNA in pCAG; source: HEK293F, co-transfected with LAT1, purified (anti-Flag M2 resin, Ni-NTA, SEC) in digitonin
T1 sequence (looked up): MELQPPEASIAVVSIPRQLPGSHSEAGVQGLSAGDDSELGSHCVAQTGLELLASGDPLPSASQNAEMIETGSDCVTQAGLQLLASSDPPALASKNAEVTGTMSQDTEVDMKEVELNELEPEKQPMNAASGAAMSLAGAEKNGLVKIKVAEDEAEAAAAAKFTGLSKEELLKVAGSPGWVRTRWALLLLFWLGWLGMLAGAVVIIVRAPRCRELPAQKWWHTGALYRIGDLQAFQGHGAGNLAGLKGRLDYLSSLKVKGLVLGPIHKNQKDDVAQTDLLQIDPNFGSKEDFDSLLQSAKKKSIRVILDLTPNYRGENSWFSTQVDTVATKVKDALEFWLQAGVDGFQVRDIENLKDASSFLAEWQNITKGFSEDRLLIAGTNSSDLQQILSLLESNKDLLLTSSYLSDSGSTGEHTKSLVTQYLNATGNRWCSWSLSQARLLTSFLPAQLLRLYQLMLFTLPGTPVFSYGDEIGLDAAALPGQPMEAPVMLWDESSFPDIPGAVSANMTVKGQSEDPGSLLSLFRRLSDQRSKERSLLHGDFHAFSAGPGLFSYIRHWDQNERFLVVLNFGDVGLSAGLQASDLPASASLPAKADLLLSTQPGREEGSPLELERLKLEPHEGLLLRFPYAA
The description is as above. The following applies: both partners purified.

Data set [3] deals with T2, 4F2hc, desialylated (neuraminidase-treated) (human, UniProt P08195-1 1-630, N-glycans at Asn365, Asn381, Asn424 and Asn506 without sialic acid (neuraminidase); fucosylation and branching retained).
T2 construct: 4F2 cell-surface antigen heavy chain (4F2hc, SLC3A2), human, full-length cDNA in pCAG; also called desialylated 4F2hc; source: HEK293F, co-transfected with LAT1, purified, then neuraminidase digestion
T2 sequence (looked up): T1 sequence (looked up)
Described as above. The following applies: both partners purified.

Data set [4] deals with the molecule itself. The data set is described as follows: native MS; LAT1 alone; sample and conditions not told in the text (Supplementary Fig. 12C).

The stoichiometry N is a count of units in the complex or per binding partner.

B1: LAT1-4F2hc heterodimer, wild type, fully glycosylated (complex)
chain 1: not shown
chain 2: T1 sequence (looked up)
modifications: phosphoserine at S35 (mono-phosphorylated proteoform, part of the population) | four highly branched, sialylated N-glycans at Asn365, Asn381, Asn424 and Asn506 (9 to 16 sialic acid residues); one phosphorylation site (residue not given)
notes: L-type amino acid transporter 1 (LAT1, SLC7A5), human, full-length cDNA in pCAG; 4F2 cell-surface antigen heavy chain (4F2hc, SLC3A2), human, full-length cDNA in pCAG; The two chains are joined by a disulfide bond; Two such heterodimers form the super-dimer (LAT1-4F2hc)2; also called LAT1-4F2hc complex; SLC7A5-SLC3A2; source: HEK293F, co-transfected, purified (anti-Flag M2 resin, Ni-NTA, SEC) in …
Consider B1, for which the “stoichiometry N” value in data set [1] was found to be 2.

B2: L-type amino acid transporter 1 (LAT1, SLC7A5) (natural protein)
chain: not shown
modifications: phosphoserine at S35 (mono-phosphorylated proteoform, part of the population)
notes: L-type amino acid transporter 1 (LAT1, SLC7A5), human, full-length cDNA in pCAG; also called light chain; source: HEK293F, co-transfected with 4F2hc, purified (anti-Flag M2 resin, Ni-NTA, SEC) in digitonin
With B2, the binding result in data set [2] and in data set [3] was “binds” in each case. In data set [4], the “stoichiometry N” value worked out at 2.

The record behind these values is article PMC11065870, “The complete assembly of human LAT1-4F2hc complex provides insights into its regulation, function and localisation” (Nature Communications, 2024).
